“And” between values parts separate entries of the source, which are not always exact repeats. Equal values may be shown once.
B1: citrine- or cerulean-tagged per^WT (FRET construct, HEK293T) (natural protein, human, UniProt P23942 1-346, looked up)
chain: MALLKVKFDQKKRVKLAQGLWLMNWFSVLAGIIIFSLGLFLKIELRKRSDVMNNSESHFVPNSLIGMGVLSCVFNSLAGKICYDALDPAKYARWKPWLKPYLAICVLFNIILFLVALCCFLLRGSLENTLGQGLKNGMKYYRDTDTPGRCFMKKTIDMLQIEFKCCGNNGFRDWFEIQWISNRYLDFSSKEVKDRIKSNVDGRYLVDGVPFSCCNPSSPRPCIQYQITNNSAHYSYDHQTEELNLWVRGCRAALLSYYSSLMNSMGVVTLLIWLFEVTITIGLRYLQTSLDGVSNPEESESESQGWLLERSVPETWKAFLESVKKLGKGNQVEAEGADAGQAPEAG
notes: peripherin-2 (PRPH2), human, wild type; in the 'per^WT only' FRET pair the two copies differ in the fluorophore; also called per^WT only; source: HEK293T, transiently co-transfected, in living cells

How the values were obtained:
[1] = target: T1, citrine- or cerulean-tagged Rom-1 (FRET construct, HEK293T) (human, UniProt Q03395 1-351); test: FRET or BRET; 3 cube FRET in living co-transfected HEK293T cells; FRET imaging solution (140 mM NaCl, 5 mM KCl, 2 mM CaCl2, 1 mM MgCl2, 10 mM glucose, 10 mM HEPES, pH 7.4), RT; EAmax from the binding curve of apparent FRET efficiency against the cerulean/citrine molar ratio; details: partners not purified
T1 construct: Rom-1, homolog of peripherin-2; 'the single human peripherin-2 and Rom-1 transgenes'; source: HEK293T, transiently co-transfected, in living cells
T1 sequence (Q03395 whole entry): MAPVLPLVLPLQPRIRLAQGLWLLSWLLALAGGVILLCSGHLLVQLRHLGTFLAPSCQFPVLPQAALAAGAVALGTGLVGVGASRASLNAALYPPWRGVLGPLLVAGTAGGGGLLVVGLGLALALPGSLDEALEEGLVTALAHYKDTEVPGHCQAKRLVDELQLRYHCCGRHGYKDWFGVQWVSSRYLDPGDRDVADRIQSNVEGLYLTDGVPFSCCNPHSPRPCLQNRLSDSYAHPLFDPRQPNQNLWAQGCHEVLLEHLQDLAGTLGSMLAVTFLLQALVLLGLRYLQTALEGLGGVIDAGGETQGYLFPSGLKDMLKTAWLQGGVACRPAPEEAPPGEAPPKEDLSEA

[2] = target: the molecule itself; test: as above
[3] = target: the molecule itself; test: sucrose density gradient centrifugation; lysate of transfected HEK293T cells (0.5% Triton X-100, 150 mM NaCl, 2 mM CaCl2) on a 5-20% sucrose gradient with 0.1% Triton X-100 and 10 mM N-ethylmaleimide, 46,700 rpm, 2 h, 4 °C; 11 fractions immunoblotted with myc- or flag-specific antibodies under non-reducing conditions; DNA standards for size
[4] = target: B1; test: FRET or BRET; 3 cube FRET in living co-transfected HEK293T cells; FRET imaging solution (140 mM NaCl, 5 mM KCl, 2 mM CaCl2, 1 mM MgCl2, 10 mM glucose, 10 mM HEPES, pH 7.4), RT; EAmax from the binding curve of apparent FRET efficiency against the cerulean/citrine molar ratio; details: partners not purified

EAmax (maximal FRET efficiency) [1]	EAmax (maximal FRET efficiency) [4]	Binder	EAmax (maximal FRET efficiency) [2]	stoichiometry N [3]
15.6%	–	B1	34.2%	–
–	–	C-terminally myc- or flag-tagged per^WT (SDGC construct) (natural protein, human, UniProt P23942 1-346, looked up, peripherin-2 (PRPH2), human, wild type; also called per^WT only; source: HEK293T, transiently transfected, in lysate (0.5% Triton X-100)) MALLKVKFDQKKRVKLAQGLWLMNWFSVLAGIIIFSLGLFLKIELRKRSDVMNNSESHFVPNSLIGMGVLSCVFNSLAGKICYDALDPAKYARWKPWLKPYLAICVLFNIILFLVALCCFLLRGSLENTLGQGLKNGMKYYRDTDTPGRCFMKKTIDMLQIEFKCCGNNGFRDWFEIQWISNRYLDFSSKEVKDRIKSNVDGRYLVDGVPFSCCNPSSPRPCIQYQITNNSAHYSYDHQTEELNLWVRGCRAALLSYYSSLMNSMGVVTLLIWLFEVTITIGLRYLQTSLDGVSNPEESESESQGWLLERSVPETWKAFLESVKKLGKGNQVEAEGADAGQAPEAG	–	4 and 8
–	–	C-terminally myc- or flag-tagged per^C214S (SDGC construct) (natural protein, human, UniProt P23942 1-346, looked up, peripherin-2 (PRPH2), human, adRP-linked mutant C214S; also called per^C214S only; per^MT; source: HEK293T, transiently transfected, in lysate (0.5% Triton X-100)) MALLKVKFDQKKRVKLAQGLWLMNWFSVLAGIIIFSLGLFLKIELRKRSDVMNNSESHFVPNSLIGMGVLSCVFNSLAGKICYDALDPAKYARWKPWLKPYLAICVLFNIILFLVALCCFLLRGSLENTLGQGLKNGMKYYRDTDTPGRCFMKKTIDMLQIEFKCCGNNGFRDWFEIQWISNRYLDFSSKEVKDRIKSNVDGRYLVDGVPFSCSNPSSPRPCIQYQITNNSAHYSYDHQTEELNLWVRGCRAALLSYYSSLMNSMGVVTLLIWLFEVTITIGLRYLQTSLDGVSNPEESESESQGWLLERSVPETWKAFLESVKKLGKGNQVEAEGADAGQAPEAG	–	2
6.58%	9.44%	citrine- or cerulean-tagged per^P210L (FRET construct, HEK293T) (natural protein, human, UniProt P23942 1-346, looked up, peripherin-2 (PRPH2), human, adRP-linked mutant P210L; in the 'per^P210L only' FRET pair the two copies differ in the fluorophore; also called per^P210L only; per^MT; source: HEK293T, transiently co-transfected, in living cells) MALLKVKFDQKKRVKLAQGLWLMNWFSVLAGIIIFSLGLFLKIELRKRSDVMNNSESHFVPNSLIGMGVLSCVFNSLAGKICYDALDPAKYARWKPWLKPYLAICVLFNIILFLVALCCFLLRGSLENTLGQGLKNGMKYYRDTDTPGRCFMKKTIDMLQIEFKCCGNNGFRDWFEIQWISNRYLDFSSKEVKDRIKSNVDGRYLVDGVLFSCCNPSSPRPCIQYQITNNSAHYSYDHQTEELNLWVRGCRAALLSYYSSLMNSMGVVTLLIWLFEVTITIGLRYLQTSLDGVSNPEESESESQGWLLERSVPETWKAFLESVKKLGKGNQVEAEGADAGQAPEAG	30.7%	–
6.32%	8.58%	citrine- or cerulean-tagged per^C214S (FRET construct, HEK293T) (natural protein, human, UniProt P23942 1-346, looked up, peripherin-2 (PRPH2), human, adRP-linked mutant C214S; in the 'per^C214S only' FRET pair the two copies differ in the fluorophore; also called per^C214S only; per^MT; source: HEK293T, transiently co-transfected, in living cells) MALLKVKFDQKKRVKLAQGLWLMNWFSVLAGIIIFSLGLFLKIELRKRSDVMNNSESHFVPNSLIGMGVLSCVFNSLAGKICYDALDPAKYARWKPWLKPYLAICVLFNIILFLVALCCFLLRGSLENTLGQGLKNGMKYYRDTDTPGRCFMKKTIDMLQIEFKCCGNNGFRDWFEIQWISNRYLDFSSKEVKDRIKSNVDGRYLVDGVPFSCSNPSSPRPCIQYQITNNSAHYSYDHQTEELNLWVRGCRAALLSYYSSLMNSMGVVTLLIWLFEVTITIGLRYLQTSLDGVSNPEESESESQGWLLERSVPETWKAFLESVKKLGKGNQVEAEGADAGQAPEAG	26.5%	–
